According to patent publication US10400249B2, “HPPD variants and methods of use” (priority 2014, dated 2019):

Columns and labels:
[1] = test system: Pseudomonas fluorescens HPPD protein; experiment: HGD assay: HPPD activity coupled to HGA dioxygenase, pI50 and type of inhibition (time-course); format: biochemical
Experimental: (§1) HPPD proteins were produced and purified as described in WO2011/076882. The activity of HPPD proteins in absence or presence of HPPD inhibitors was determined using either the so called OD assay or the HGD assay.
(§2) • a) The OD assay: The HPPD activity was determined colourimetrically by measuring the amount of HPP remaining in the assay mixture at the end of the incubation period after derivatisation of HPP with 2,4-dinitrophenylhydrazine (DNP) to form an amber-brown colored 2,4-dinitrophenylhydrazone under alkaline conditions. The assay was carried out at room temperature in Greiner F-bottom 96 well microplates. The assay mixture contained 50 mM Tris-HCl pH 7.8, 0.5 mM HPP, 10 mM ascorbate, 650 units of catalase and appropriate amounts of purified HPPD enzyme in a total assay volume of 100 μl. The reaction was started by the addition of enzyme. After an incubation time of 24 minutes, the reaction was stopped by the addition of 50 μl of a solution of 0.04% DNP dissolved in 3.8 N HCl. After a further 15-minute incubation period 100 μl of a 5 N KOH solution was added to the reaction mixture and the amount of unconsumed HPP was measured photometrically at 405 nm. Enzyme activity was calculated as the difference in E405 between assays lacking enzyme (negative control) and the enzyme containing assays (ΔE405=E405(negative control)−E405). Enzyme activity (nmol substrate consumed per min) was calculated from a calibration curve generated from HPP. pI50-values (the negative log value of the concentration of inhibitor necessary to inhibit 50% of the enzyme activity in molar concentration were determined from dose-response plots of HPPD activity versus inhibitor concentration tested (5.0×10^−6, 1.0×10^−5, 2.5×10^−5, 4.0×10^−5, 7.0×10^−5, 1.0×10^−4, 2.0×10^−4 and 5.0×10^−4M) using the 4 Parameter Logistic Model or Sigmoidal Dose-Response Model of the ID Business Solutions Ltd. XLfit software suite. The result “>5.6” means that the inhibition at the lowest inhibitor concentration tested was higher than 85% and the pI50-value could therefore not be precisely calculated within in the range of concentration of inhibitor tested. The result “<2.5” means that the inhibition at the highest inhibitor concentration tested was lower than 25% and the pI50-value could therefore not be precisely calculated within in the range of concentration of inhibitor tested. “n.d.” means not determined. • b) The HGD assay: With the HGD assay HPPD activity was measured at room temperature by adding appropriate amounts of HPPD to a solution of 200 mM Tris-HCl pH 7.6, 10 mM ascorbate, 20 μM FeSO4, 650 units of catalase, 8 μg HGA dioxygenase (HGA: homogentisate) and 600 μM HPP in a total volume of 1 ml. Initial reaction rates in the absence or presence of inhibitors were determined from the increase in absorbance at 318 nm due to the formation of maleylacetoacetate (ε318=11,900 M−1 cm-1). pI50-values (the negative log value of the concentration of inhibitor necessary to inhibit 50% of the enzyme activity in molar concentration were determined from dose-response plots of HPPD activity versus inhibitor concentration tested using the 4 Parameter Logistic Model or Sigmoidal Dose-Response Model of the ID Business Solutions Ltd. XLfit software suite. Due to the UV absorption of the HPPD inhibitors tested, inhibitor concentrations >100 μM could not be tested. The result “<4” means that the inhibition at 100 μM inhibitor concentration was lower than 25% and the pI50-value could therefore not be precisely calculated within in the range of concentration of inhibitor tested. “n.d.” means not determined. The HGD assay allowed to continuously follow HPPD-catalyzed HGA formation over time was therefore used to determine the inhibition type of the HPPD inhibitors tested. […] When in the presence of an inhibitor the HPPD activity was inhibited but the inhibition was found not to […] in a time-dependent manner, the inhibitor was called reversible (abbreviation “rev”). […]

[2] = test system: Pseudomonas fluorescens HPPD protein; experiment: OD assay: HPPD activity and pI50 from HPP remaining after derivatisation with DNP; format: biochemical; settings: for Activity DeltaE/24 min μg Protein: HPPD enzyme activity of the clone; for tolerance (pI50) Cmpd. 2: inhibitor Cmpd. 2; for tolerance (pI50) DKN: inhibitor diketonitrile (DKN), negative log of molar concentration; for tolerance (pI50) MST: inhibitor mesotrione (MST); for tolerance (pI50) TBT: inhibitor tembotrione (TBT)
Experimental: as §1, §2

Row | Molecule | mechanism of inhibition by Cmpd. 2, time-course of inhibition [1] | tolerance (pI50) Cmpd. 2 ([1]; inhibitor Cmpd. 2, HGD assay) | Activity DeltaE/24 min μg Protein [2] [DeltaE/24 min μg Protein] | tolerance (pI50) Cmpd. 2 [2] | tolerance (pI50) DKN [2] | tolerance (pI50) MST [2] | tolerance (pI50) TBT [2] | pI50-values of Cmpd. 2 ([1]; assay not given, follows the time-course analysis (HGD assay))
1 | K306: PfHPPD variant P215L, Q226H, E335P, G336F, A340E (protein, HPPD variant - K306, PfHPPD variant P215L, Q226H, E335P, G336F, A340E) MADLYENPMGLMGFEFIEFASPTPGTLEPIFEIMGFTKVATHRSKNVHLYRQGEINLILNNEPNSIASYFAAEHGPSVCGMAFRVKDSQKAYNRALELGAQPIHIDTGPMELNLPAIKGIGGAPLYLIDRFGEGSSIYDIDFVYLEGVERNPVGAGLKVIDHLTHNVYRGRMVYWANFYEKLFNFREARYFDIKGEYTGLTSKAMSAPDGMIRILLNEESSKGAGHIEEFLMQFNGEGIQHVAFLTDDLVKTWDALKKIGMRFMTAPPDTYYEMLEGRLPDHGEPVDQLQARGILLDGSSVEGDKRLLLQIFSETLMGPVFFEFIQRKGDDGFGPFNFKELFESIERDQVRRGVLTAD | fully reversible inhibitor | 4.9 | 0.01 | 5.1 | <2.5 | 3.7 | 4.8 | 
2 | K363: PfHPPD variant Q226H, E335P, G336F, A340E (protein, HPPD variant - K363, PfHPPD variant Q226H, E335P, G336F, A340E) MADLYENPMGLMGFEFIEFASPTPGTLEPIFEIMGFTKVATHRSKNVHLYRQGEINLILNNEPNSIASYFAAEHGPSVCGMAFRVKDSQKAYNRALELGAQPIHIDTGPMELNLPAIKGIGGAPLYLIDRFGEGSSIYDIDFVYLEGVERNPVGAGLKVIDHLTHNVYRGRMVYWANFYEKLFNFREARYFDIKGEYTGLTSKAMSAPDGMIRIPLNEESSKGAGHIEEFLMQFNGEGIQHVAFLTDDLVKTWDALKKIGMRFMTAPPDTYYEMLEGRLPDHGEPVDQLQARGILLDGSSVEGDKRLLLQIFSETLMGPVFFEFIQRKGDDGFGPFNFKELFESIERDQVRRGVLTAD | fully reversible inhibitor |  | 0.20 | 5.4 | 3.8 | 4.3 | 5.5 | 
3 | K250: PfHPPD variant A188G, R189C, P215L, E335P, G336F, A340E (protein, HPPD variant - K250, PfHPPD variant A188G, R189C, P215L, E335P, G336F, A340E) MADLYENPMGLMGFEFIEFASPTPGTLEPIFEIMGFTKVATHRSKNVHLYRQGEINLILNNEPNSIASYFAAEHGPSVCGMAFRVKDSQKAYNRALELGAQPIHIDTGPMELNLPAIKGIGGAPLYLIDRFGEGSSIYDIDFVYLEGVERNPVGAGLKVIDHLTHNVYRGRMVYWANFYEKLFNFREGCYFDIKGEYTGLTSKAMSAPDGMIRILLNEESSKGAGQIEEFLMQFNGEGIQHVAFLTDDLVKTWDALKKIGMRFMTAPPDTYYEMLEGRLPDHGEPVDQLQARGILLDGSSVEGDKRLLLQIFSETLMGPVFFEFIQRKGDDGFGPFNFKELFESIERDQVRRGVLTAD | fully reversible inhibitor |  | 0.07 | 4.6 | <2.5 | 3.0 | 3.8 | < 4
